The values that follow come from PMC9769499.

The target of this data set is T1, CzcR (Pseudomonas aeruginosa PAO1) (UniProt Q9RLJ1).
T1 sequence: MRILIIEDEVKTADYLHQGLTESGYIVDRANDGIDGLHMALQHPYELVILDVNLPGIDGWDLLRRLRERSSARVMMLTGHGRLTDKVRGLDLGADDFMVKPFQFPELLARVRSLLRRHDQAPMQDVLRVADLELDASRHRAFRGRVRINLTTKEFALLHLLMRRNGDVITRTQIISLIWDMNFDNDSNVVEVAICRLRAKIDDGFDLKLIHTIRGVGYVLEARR
The data set can be described thus: EMSA. To be noted: Thermo Scientific EMSA kit per manufacturer's instructions; buffer, salt, pH and temperature not stated.

In the case of “CTGACTCATGACTCTTCCTCCAACAGCCGCGGCTTTTTTGACGCCGCCCGGCACTTTGCAGAGGAGTTAGCAACAAGGGTGCCAAGTCGGCCCCAAGGCCCGGCATCGGCGTTCGCCGCCAATGCCCGCGACCGCTGCAGGGTCCGTCCCTGCTCCGGTTATCGGCAGGCGCGCACGCTCGAACAG (double strand) [PfliE]”, the binding entry is “no binding”.

As for “GCAACCGTTCGGAACATTCTTCCCGTCGGGGGTAGGCGAGCGACTTGCCCTGTGGAATAATACTGTCTACTTATACAGTTGTTCGTGGCCGTCCGGCCGCCCTGACTTCGCGAGGACTTCAATGGA (double strand) [recA fragment (PrecA)]”, the binding result is on record as “no binding”.

Regarding “GGTGATTTCCTCCAAAGGACCTATTTCGGTTACCTGAGCTTGCGATCTCTCGGCCTGCTTGCTCAGGTGCCCCAAGAATTCGCGTTCATGGTGTTTATCGGCGTTTCCCGGCGGAGCTTTAGAGAAAAAATCAACATTTTCTTTTTCTCTTCCTCTTCAGTGGGTTACATGCTTCGAAGAGGACTCGCCAATATCGGTCCTGAA (double strand) [PfliC]”, the binding entry was “no binding”.

“TCATGGGTGTCGGGCTCGGTGTCGGCGAGGCGGCGAACTGGCTTTTCGAGTATTCGGACTATAGTCTTGCGGCTAGCAACCGATAACAAGAGGGAGCCTAGCAGTCCCCCTCCTTATCCTGTTCATTTCGCACGTCCGGTCCTCATGTCAAAAATCATCGGC (double strand) [PmotA]”: the binding result is reported as “no binding”.

Regarding “GTTCCAGGGGCTTGCCACCCTTGCCGGCAAGCGGAAGCGGCTTGCCGCTTGCCGCTTCCGGGTTACCCTTAAATAAACTCAAGTTATTGAATATAAAGGTTTTTAATAATTTGGCACGGGCCTTGCTGAAGTGTTGGCGACGAAAGCCACACCGGCAAACAGGTTCGCAGCCATGAGCATCAGTTTCGA (double strand) [PflgB]”, the binding result is on record as “binds”.

As for “CATCTGCTTCATACCTTGTGTTGTCGTCTTCCCGGAACGCCCCTTCCAGCGCTCTCCGGTATTGGCGGGAACGATGCGCCATCGCTCCCGGCCCGGCGGAAGCCACCTTCGCTTCCGTCACCCGCGCCACGCGCGGTTCTTCCCACGTCCTCA (double strand) [PfleN]”, the binding entry is “binds”.

Turning to “GACGTACAGCATCTTGTCCATCGAATCCTCCAGGCACCGGCACAATCCGCCGGGCTTTCTTGCAGGTTATCCAGCAAGCGCCGTGCCAGAATTCGAAAAAACAATTAATACATTGATTTAAAAGGATTTTATAAAACAGAAAGCCTCCTTTCGGAGGCTTCGGGGGCAA (double strand) [PflgF]”, the binding entry is reported as “binds”.

Regarding “GCGCACATTGCTGATCAGTTGCGTGCGATCCACTCTCGACTCCCCTGCCCTGCGTATGGCGCCCGTGGGTGGGCGCCGAACAAACTTTTGACGCCGGAATGCGCGTCGGGCGGGTCATTGCAGGAACCGTTCCAACTTTTCAATTCATTGATTGAAAAGGGTTTTCGCCAA (double strand) [PflhA]”, the binding entry is recorded as “no binding”.

For “TTTCTTAGCCATGCCAAAAATCCGTCGCTATAGCGTCAAATGAAGGGTTTCACAGGGGCAGAGCAAGGGTTGTGCCATTTCTGCAACGCCGCCCCGCCTCCTGGGACCAGCCCCGGAGGGCTGTCCGAGATGATAGACGGCGCGGATATTACAGCCTGGCCACAGGAAATCATCCCCGTCTTTTGCGAAATTGCC (double strand) [PPA1442]”, the binding result is “binds”.

With “TACACAGTGTCCTGTTCGAAACCCGCGCCTGACGCGCGGGTTGAACGACTTGGCATGGTGCTTGCCCTATCGAAGGGATAGGGCAGTACATGCACGGTTTTTTGACGGAGATGGATTATGGCCGGTATCTCGATAGGAGTA (double strand) [PfliD]”, the binding entry is “no binding”.
